From US20130315927A1 (Novartis, published 2013)
Read-outs that look alike come from different tables or passages of the source.

T1: cynomolgus macaque PCSK9 with C-terminal his6 tag (cynomolgus monkey)
T1 chain: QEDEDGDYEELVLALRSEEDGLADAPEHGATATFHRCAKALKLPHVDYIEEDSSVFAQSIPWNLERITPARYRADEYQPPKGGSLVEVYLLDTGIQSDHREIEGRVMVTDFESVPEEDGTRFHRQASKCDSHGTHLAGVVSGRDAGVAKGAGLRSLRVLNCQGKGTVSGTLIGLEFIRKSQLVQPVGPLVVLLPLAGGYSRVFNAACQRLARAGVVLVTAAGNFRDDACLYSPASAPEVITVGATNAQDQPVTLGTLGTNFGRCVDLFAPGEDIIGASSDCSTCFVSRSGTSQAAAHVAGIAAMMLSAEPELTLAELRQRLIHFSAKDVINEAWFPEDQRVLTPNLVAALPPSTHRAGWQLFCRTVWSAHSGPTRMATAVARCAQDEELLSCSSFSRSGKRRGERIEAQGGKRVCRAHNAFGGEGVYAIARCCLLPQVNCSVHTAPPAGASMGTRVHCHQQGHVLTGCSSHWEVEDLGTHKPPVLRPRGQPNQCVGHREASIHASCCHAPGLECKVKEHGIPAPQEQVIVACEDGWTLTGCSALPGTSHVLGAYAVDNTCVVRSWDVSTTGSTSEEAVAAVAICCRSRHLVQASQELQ

T2: hFgfr4 hFc (human, UniProt P22455)
T2 sequence (fusion chain, looked up): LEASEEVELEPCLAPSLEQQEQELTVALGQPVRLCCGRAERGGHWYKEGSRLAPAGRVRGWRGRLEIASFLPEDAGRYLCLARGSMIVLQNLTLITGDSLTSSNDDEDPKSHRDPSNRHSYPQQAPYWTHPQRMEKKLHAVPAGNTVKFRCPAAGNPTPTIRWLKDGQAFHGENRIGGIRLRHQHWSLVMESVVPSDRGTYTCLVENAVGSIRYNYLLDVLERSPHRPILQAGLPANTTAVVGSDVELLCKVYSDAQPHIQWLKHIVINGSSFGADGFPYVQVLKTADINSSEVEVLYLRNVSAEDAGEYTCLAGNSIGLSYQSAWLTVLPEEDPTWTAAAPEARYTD

T3: HIS tag
T3 construct: also called his6 tag; 6-His
T3 peptide: HHHHHH


What was measured:
[1] = biological target: biotinylated PCSK9-Avi-His6 (human) (UniProt Q8NBP7); test: ForteBio Octet bio-layer interferometry, biotinylated PCSK9-Avi-His6 on streptavidin sensors, Fab in solution
[2] = biological target: T4, recombinant human PCSK9 (aa 31-692) with C-terminal His6 tag (human, UniProt Q8NBP7 31-692); test: solution equilibrium titration (SET), MSD electrochemiluminescence read-out
T4 construct: range 31-692; In the TR-FRET assay it carried a fluorophore (hPcsk9-AF); also called hPcsk9; hPCSK9
Description: The binding kinetics of the final selected candidates were analyzed using a Solution Equilibrium Titration (“SET”) assay. Briefly, serial dilutions of human, cyno, mouse, or rat Pcsk9 were prepared, and anti-Pcsk9 Ab was added to each antigen concentration to reach a constant antibody concentration of 100 pM. 100 μL/well of each dilution mix was distributed in duplicate to a 96-well polypropylene microtiter plate (Greiner). The plate was sealed and incubated over night at room temperature. A 96-well Standard Bind microtiter plate (Meso Scale Discovery) was coated with 25 μL of 1 μg/mL Pcsk9 diluted in PBS. This plate was sealed and incubated overnight at 4° C. After the incubation the antigen-coated Standard Bind micro titer plate was washed three times with 200 μL per well PBS/0.05% (w/v) Tween 20. Subsequently, the plate was blocked with 150 μL/well PBS/5% (w/v) BSA and incubated for one hour at room temperature with shaking. The washing steps were repeated and 25 μL/well of the antibody-antigen preparation from the polypropylene microtiter plate was transferred into the antigen-coated Standard Bind plate. The Standard Bind plate was incubated for 60 min at room temperature with shaking. […] Electrochemiluminescence signals were generated and detected by a Sector Imager 6000 (Meso Scale Discovery).

[3] = biological target: T1, cynomolgus macaque PCSK9 with …; test: solution equilibrium titration (SET), fit by the model of Piehler et al.
Description: (§1) The binding kinetics of the final selected candidates were analyzed using a Solution Equilibrium Titration (“SET”) assay. Briefly, serial dilutions of human, cyno, mouse, or rat Pcsk9 were prepared, and anti-Pcsk9 Ab was added to each antigen concentration to reach a constant antibody concentration of 100 pM. 100 μL/well of each dilution mix was distributed in duplicate to a 96-well polypropylene microtiter plate (Greiner). The plate was sealed and incubated over night at room temperature. A 96-well Standard Bind microtiter plate (Meso Scale Discovery) was coated with 25 μL of 1 μg/mL Pcsk9 diluted in PBS. This plate was sealed and incubated overnight at 4° C. After the incubation the antigen-coated Standard Bind micro titer plate was washed three times with 200 μL per well PBS/0.05% (w/v) Tween 20. Subsequently, the plate was blocked with 150 μL/well PBS/5% (w/v) BSA and incubated for one hour at room temperature with shaking. The washing steps were repeated and 25 μL/well of the antibody-antigen preparation from the polypropylene microtiter plate was transferred into the antigen-coated Standard Bind plate. The Standard Bind plate was incubated for 60 min at room temperature with shaking. After three additional washing steps, 25 μL of 1 μg/mL Sulfo-Tag-labeled goat anti-human-detection antibody (R32AJ-5, Meso Scale Discovery) diluted in PBS/1% (w/v) BSA/0.05% (w/v) Tween 20, buffer were added to each well and incubated one hour at room temperature with shaking. […] Electrochemiluminescence signals were generated and detected by a Sector Imager 6000 (Meso Scale Discovery).

[4] = biological target: T5, murine PCSK9 (mouse, UniProt Q80W65 35-694, limits assumed); test: as above
T5 construct: also called mouse Pcsk9
T5 sequence (Q80W65 other isoform, or with tags, fused parts or gaps limits assumed): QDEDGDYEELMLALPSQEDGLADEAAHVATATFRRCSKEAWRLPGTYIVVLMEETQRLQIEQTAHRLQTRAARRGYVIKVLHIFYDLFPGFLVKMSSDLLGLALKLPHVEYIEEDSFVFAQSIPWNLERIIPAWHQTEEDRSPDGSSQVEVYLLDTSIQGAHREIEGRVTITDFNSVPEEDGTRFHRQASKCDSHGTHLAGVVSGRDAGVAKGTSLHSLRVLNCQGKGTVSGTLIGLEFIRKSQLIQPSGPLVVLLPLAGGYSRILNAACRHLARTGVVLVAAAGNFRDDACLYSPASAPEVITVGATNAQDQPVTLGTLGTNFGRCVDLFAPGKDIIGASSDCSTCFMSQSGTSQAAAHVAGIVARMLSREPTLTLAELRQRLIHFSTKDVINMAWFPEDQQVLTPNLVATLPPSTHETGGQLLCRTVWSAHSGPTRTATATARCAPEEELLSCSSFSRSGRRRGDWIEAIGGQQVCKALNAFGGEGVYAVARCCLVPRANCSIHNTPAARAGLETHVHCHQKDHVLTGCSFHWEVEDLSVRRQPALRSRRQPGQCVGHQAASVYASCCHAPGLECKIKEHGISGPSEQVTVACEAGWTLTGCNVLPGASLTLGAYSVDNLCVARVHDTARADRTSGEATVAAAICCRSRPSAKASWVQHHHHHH
Description: as §1

[5] = biological target: Rat (Pcsk9 homolog) (rat, UniProt P59996); test: as above
Chain of Rat (Pcsk9 homolog) (P59996 31-691 limits assumed): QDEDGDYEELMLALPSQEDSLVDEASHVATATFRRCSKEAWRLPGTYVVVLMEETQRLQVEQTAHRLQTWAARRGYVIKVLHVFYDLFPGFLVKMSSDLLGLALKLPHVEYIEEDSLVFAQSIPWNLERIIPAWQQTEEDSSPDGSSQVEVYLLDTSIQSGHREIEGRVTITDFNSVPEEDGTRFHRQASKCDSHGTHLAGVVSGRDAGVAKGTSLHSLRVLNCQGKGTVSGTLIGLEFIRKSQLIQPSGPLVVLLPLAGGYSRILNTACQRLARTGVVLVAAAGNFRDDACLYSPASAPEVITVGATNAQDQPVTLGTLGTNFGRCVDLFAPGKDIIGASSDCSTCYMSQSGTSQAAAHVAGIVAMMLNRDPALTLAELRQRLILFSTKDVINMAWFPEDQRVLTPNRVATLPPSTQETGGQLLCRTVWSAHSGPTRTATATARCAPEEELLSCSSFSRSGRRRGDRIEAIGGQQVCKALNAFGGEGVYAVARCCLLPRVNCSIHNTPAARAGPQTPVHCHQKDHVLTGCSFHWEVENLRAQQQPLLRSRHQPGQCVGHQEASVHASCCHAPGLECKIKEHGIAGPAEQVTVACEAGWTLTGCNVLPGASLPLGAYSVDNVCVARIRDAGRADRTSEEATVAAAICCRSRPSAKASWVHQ
Description: as §1

[6] = biological target: T4, recombinant human PCSK9 (aa 31-692) …; test: solution equilibrium titration (SET): soluble human PCSK9 titrated against 100 pM antibody, free antibody captured on a Pcsk9-coated MSD plate; the concentration is that of human PCSK9
Description: Briefly, serial dilutions of human, cyno, mouse, or rat Pcsk9 were prepared, and anti-Pcsk9 Ab was added to each antigen concentration to reach a constant antibody concentration of 100 pM. 100 μL/well of each dilution mix was distributed in duplicate to a 96-well polypropylene microtiter plate (Greiner). The plate was sealed and incubated over night at room temperature. A 96-well Standard Bind microtiter plate (Meso Scale Discovery) was coated with 25 μL of 1 μg/mL Pcsk9 diluted in PBS. This plate was sealed and incubated overnight at 4° C. After the incubation the antigen-coated Standard Bind micro titer plate was washed three times with 200 μL per well PBS/0.05% (w/v) Tween 20. Subsequently, the plate was blocked with 150 μL/well PBS/5% (w/v) BSA and incubated for one hour at room temperature with shaking. The washing steps were repeated and 25 μL/well of the antibody-antigen preparation from the polypropylene microtiter plate was transferred into the antigen-coated Standard Bind plate. The Standard Bind plate was incubated for 60 min at room temperature with shaking. […] Electrochemiluminescence signals were generated and detected by a Sector Imager 6000 (Meso Scale Discovery).

[7] = biological target: T2, hFgfr4 hFc; test: specificity ELISA, antigen coated at 88 ng per well, absorbance 650 nm
Description: (§2) For specificity ELISAs on purified human and mouse IgGs, a 384-well plate was coated with a panel of purified human or mouse antigens at 88 ng per well and incubated overnight at 4° C. The plate was blocked and washed as described above, then 22 μL of purified mouse or human anti-PCSK9 antibody diluted to 2 μg/mL in PBS was added to each well. The plate was incubated for 1 hr at 37° C. then washed with PBST. […] The plate was incubated for 1 hr at room temperature, then washed and developed as described above.

[8] = biological target: T4, recombinant human PCSK9 (aa 31-692) …; test: TR-FRET competition, hPcsk9-AF (8 nM) and hLDL-R-Eu (1 nM)
Description: Data are representative of at least two independent experiments.

[9] = biological target: T4, recombinant human PCSK9 (aa 31-692) …; test: cell-based or functional assay
[10] = biological target: T2, hFgfr4 hFc; test: specificity ELISA, antigen coated at 88 ng per well, absorbance 650 nm; remark: listed apart in the source
Description: as §2

[11] = biological target: T4, recombinant human PCSK9 (aa 31-692) …; test: cell-based or functional assay; remark: listed apart in the source
[12] = biological target: T3, HIS tag; test: ELISA
[13] = biological target: T4, recombinant human PCSK9 (aa 31-692) …; test: solution equilibrium titration (SET), MSD electrochemiluminescence read-out; remark: listed apart in the source
Description: Serial dilutions of Pcsk9 were prepared, and antibodies were added to each antigen concentration to reach a constant antibody concentration of 100 pM. 100 μL/well of each dilution mix was distributed in duplicate to a 96-well polypropylene microtiter plate (Greiner). The plate was sealed and incubated over night at room temperature. A 96-well Standard Bind microtiter plate (Meso Scale Discovery) was coated with 25 μL of 1 μg/mL Pcsk9 diluted in PBS. This plate was sealed and incubated over night at 4° C. After the incubation the antigen-coated Standard Bind micro titer plate was washed three times with 200 [L per well PBS/0.05% (w/v) Tween 20. Subsequently, the plate was blocked with 150 μL/well PBS/5% (w/v) BSA and incubated for one hour at room temperature with shaking. The washing steps were repeated and 25 μL/well of the antibody-antigen preparation from the polypropylene microtiter plate was transferred into the antigen-coated Standard Bind plate. The Standard Bind plate was incubated for 60 min at room temperature with shaking. […] Electrochemiluminescence signals were generated and detected by a Sector Imager 6000 (Meso Scale Discovery). […]

[14] = biological target: T4, recombinant human PCSK9 (aa 31-692) …; test: TR-FRET competition, labelled hPcsk9 (8 nM) and labelled hLDL-R (1 nM); MAB1 antibody as competitor
Description: The percentage inhibition was calculated with the following formula: 100−[(normalized value of treated sample/averaged normalized value of untreated samples)×100]. The percentage inhibition dose response curves were plotted using Prism version 5 with the formula, Y=Bottom+(Top−Bottom)/(1+10̂((LogIC50−X)*HillSlope)) (GraphPad Prism Software).

Binder | Kd [1] [nM] | Kd [2] [nM] | Kd [3] [nM] | Kd [4] [nM] | Kd [5] [nM] | IC50 (read off the curve) [6] [nM] | binding result [7] | IC50 [8] [nM] | EC50, LDL uptake (DiI-LDL uptake by HepG2 cells with hPCSK9, flow cytometry) [9] [nM] | EC50, LDL-R protection (surface LDL-R on HepG2 cells, flow cytometry) [9] [nM] | binding result [10] | DiI-LDL-uptake by HepG2 cells treated with exogenous hPcsk9, EC50 [11] [nM] | binding result [12] | Kd [13] [nM] | IC50 [14] [nM]
fully Humaneered Fab Clone #44 (Fab, part only; not given: kappa light chain, V domains shown, part only) VH: QITLKESGPVLVKPTETLTLTCTVSGFSLSTSGVGVGWIRQPPGKALEWLADIWWDDNKYYNPSLKSRLTISKDTSKNQVVLTMTNMDPVDTATYYCARITTEGGFAYWGQGTLVTVSS | 22.3 | – | – | – | – | – | – | – | – | – | – | – | – | – | –
Humaneered antibody MAB2 (antibody, human IgG1, V domains shown) VH: QITLKESGPVLVKPTETLTLTCTVSGFSLSTSGVGVGWIRQPPGKALEWLADIWWDDNKYYNPSLKSRLTISKDTSKNQVVLTMTNMDPVDTATYYCARITTEGGFAYWGQGTLVTVSS VL: DIQMTQSPSSLSASVGDRVTITCRAGQRISHNLHWYQQKPDESPRLLINFASRLISGVPSRFSGSGSGTDFTLTISSLQPEDFATYYCQQSNYWPLTFGQGTKLEIK | – | 0.26 | 0.4 | > 10000 | > 10000 | ~0.3 | no binding (tested: 2 µg/mL (single concentration)) | 20 | 210 | 324 | – | – | – | – | –
Humaneered antibody MAB3 (antibody, human IgG1, V domains shown) VH: QVTLKESGPTLVKPTQTLTLTCTVSGFSLSTSGVGVGWIRQSPGKALEWLADIWWDDNKYYNPSLKSRLTISKDTSKNQVVLTMTNMDPVDTATYYCARITTEGGFAYWGQGTLVTVSS VL: DIQMTQSPSSLSASVGDRVTITCRAGQRISHNLHWYQQKPDESPRLLINFASRLISGVPSRFSGSGSGTDFTLTISSLQPEDFATYYCQQSNYWPLTFGQGTKLEIK | – | 0.3 | 0.4 | > 10000 | > 10000 | ~0.3 | – | 28 | 168 | 300 | no binding (tested: 2 µg/mL (single concentration)) | – | – | – | –
mouse monoclonal antibody MAB1 (antibody, V domains shown, also called parent mouse monoclonal antibody; murine anti-human Pcsk9 IgG1-kappa monoclonal antibody) VH: QVTLKESGPGILQPSQTLSLTCSFSGFSLSTSGMGVGWIRQPSGEGLEWLADIWWDDNKYYNPSLKSRLTVSKDTSSNQVFLKITSVDTADTATYYCALITTEGGFAYWGQGTLVTVSA VL: DIVLTQSPATLSVTPGDSVSLSCRASQSINNNLHWYQQKSHESPRLLIKFASRSISGIPSKFSGSGSGTDFTLSINSVETEDFGMYFCQQSNYWPLTFGAGTNLELI | – | – | 0.23 | > 10000 | – | – | – | – | – | 309 | – | 194 | no binding | 0.27 | 77
